From article PMC12265162, “A single residue change only differing by an atomic group can drive imprinting to influenza” (Research Square, 2025) come the findings set out here.

Holding throughout (details): both partners purified
Experiment [1] has as its target T1, H1N1 A/Solomon Islands/3/2006 HA protein (Influenza A virus A/Solomon …, strain).
T1 construct: source: purified
Kind of experiment: cryo-EM structure.

For experiment [2], the target named is A/New Caledonia/20/1999 (NC99) H1 hemagglutinin, recombinant (Influenza A virus A/New …, UniProt Q6WG00, strain, biotin on the AviTag). Kind of experiment: ELISA. For orientation: ELISA stands for enzyme-linked immunosorbent assay.
Experiment [3] addresses A/Brisbane/59/2007 H1 hemagglutinin, recombinant (Influenza A virus A/Brisbane/59/2007 …, UniProt D5F1Q8, strain, biotin on the AviTag). Kind of experiment: ELISA.
In experiment [4] the target is A/USSR/90/1977 H1 hemagglutinin, recombinant (Influenza A virus A/USSR/90/1977 (H1N1), UniProt P03453, strain, biotin on the AviTag). Kind of experiment: ELISA.

B1: NI04359_d30_245 Fab (Fab, V domains shown)
VH: EVQLVESGGGLFKPGGSLRLSCAASGFTFRNAWMSWVRQAPGKGLEWVGRIKSKADGGTTDYAASVKGRFTISRDDSKNTLYLHMNSLKTEDTAVYYCTTPPEIAVVAAAMRDYYYGLDVWGPGTTVTVSS
VL: SYELTQPVSVSVALGQTARITCGGNNIGSKSLHWYQQKPGQAPVLVIYRDNNRPSGIPERFSGSNSGNTATLTISRAQAGDEADYYCQVWDSSTYVVFGGGTRLTVL
notes: also called mAb NI04359_d30_245; source: Expi293F, co-transfected, Fab purified from supernatant (Ni-NTA agarose)
As to B1, the binding result in experiment [1] is given as “binds”.

B2: NI06063_d30_103 mAb (human IgG1) (antibody, V domains shown)
VH: QVHLVESGGGVVQPGRSLRLSCAASGFTFSNYGMHWVRQAPGKGLEWVAFISYDGSNEYYADSVKGRFTISRDYSKYTLYLQMNSLRAEDTAVYYCAKDGQWLVRGAFDFWGQGTMVTVSS
VL: QSALTQPASVSGSPGQSITISCSGTGSDVGSSHLVSWYQHHPGKAPKLMIFEVSKRPLGVSNRFSGSKSGNTASLTISGLQTEDEADYYCCSYAGGRGVFGGGTKLTVL
notes: IgG1; also called mAb d30_103
Turning to B2, the binding result in experiment [2], in experiment [3] and in experiment [4] was “no binding” throughout.

B3: NI01056_d30_604 Fab (Fab, V domains shown)
VH: QVQLQESGPGLVKPSETLSLTCTVSGGSISNYYWTWIRQPPGKGLEWIGYMYDSGNTKYNSSLRSRLTMSLDTSKNQFSLKMRSVTAADTAVYYCARGGGVRNLLGLRFVSDYMDVWGKGTTVTVSS
VL: DIQMTQSPSTLSASVGDRVTITCRASQSISSWLAWYQQKPGKAPHLLIYQASSLETGVPSRFSGSGSGTEFTLTISSLQPDDFATYYCQQYNTYSSTFGQGTQLQIK
notes: also called mAb NI01056_d30_604; source: Expi293F, co-transfected, Fab purified from supernatant (Ni-NTA agarose)
Regarding B3, in experiment [1], the binding result is given as “binds”.
